From the supplement of paper PMC9170038

System: MS2 coat protein
Test: apparent KD of MS2 coat protein; designed switch direction (-1 OFF switch, 1 ON switch): 1; higher = weaker reporter binding
Summary of the method: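 Normalised cluster fluorescence was curve-fitted, and each design's median over clusters is its apparent KD. Before this, SNAP-549-labelled MS2 coat protein was titrated from 0.7 or 1.5 nM, doubling to 3 µM, over RNA switches transcribed on Illumina chips by stalled E. coli RNA polymerase. Titrations had no input, 200 uM small-molecule ligand, or an oligonucleotide input, and steps lasted 0.8–1.5 h (lowest) to 10–20 min (highest).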

[1] = Eterna round: R95, input ligand: FMN 200 uM
[2] = Eterna round: R95, input ligand: microRNA oligo, concentration not stated
[3] = Eterna round: R95, input ligand: none
[4] = input ligand: microRNA oligo, concentration not stated

Sequence	apparent KD of MS2 coat protein [1]	apparent KD of MS2 coat protein [2]	apparent KD of MS2 coat protein [3]	apparent KD of MS2 coat protein (input ligand: FMN 200 uM)	apparent KD of MS2 coat protein [4]	apparent KD of MS2 coat protein (input ligand: none)
AGUCCAGCCUGAGCUGGACAAAAGCAUGUACAUGAGGAUCACCCAUGUUCAUGUACAAGCUUUUUGCUCGUCUUGCU [salish99_208a_r3_105x] (puzzle: Sensor for hsa-mir-208a)	578 nM	15.7 nM	680 nM	–	–	–
UUAAUGAAGUAAGGAUAUACAUGAGGAUCACUCGUAGAAGGUACUAUACAUGAGGAUCACCCAUGUUCCGGUCCGUAGACUGGA [JL SSNG1 1.02] (Eterna round: R96, puzzle: Same State NG 1)	–	–	–	1600 nM	236 nM	841 nM
UCUUGGUUUUUGCUCGUUUUUUGUGUUGAACAUGAGGAUCACCCAUGUAUUGUACGGUCCAAUUUGAUAGUGGUCCG [JMF 28] (puzzle: Sensor for hsa-mir-208a)	25.5 nM	14.9 nM	25.7 nM	–	–	–
GUAGCAUGCAGGCAGGAUAUUCAUAUUAAAACAUGAGGAUCACCCAUGUAGGCCGAAAGGCCUUGGGAGAAGGGCCACAUGCUAC [Xeonanis - 18] (puzzle: Same State 2)	34.3 nM	453 nM	1020 nM	–	–	–
GUACUCAUGUAAGGAUAUGCAGCCGUUUCGGCUGCAGAAGGUACUAUAAUACAUGAGGAUCACCCAUGUCUCUAUAAUUUGGUG [salish99_SSNG1_r04_902] (Eterna round: R96, puzzle: Same State NG 1)	–	–	–	177 nM	62.4 nM	132 nM
GCGGAGAGGUAAGGAUAUUCAUGGCAUAGACAUGAGGAUCACCCAUGUAGGAGACGAAUUAGAAGGAAGAAGGUACCGGGACGC [AK SSNG2-V2-18.1] (Eterna round: R96, puzzle: Same State NG 2)	–	–	–	158 nM	113 nM	197 nM
ACAUGAGGAUCACCCAUGUAUUUAUAUGAAUCUUAAGUUACGUAGGAUAUCGUCUAUACUAUCAACGAGAAGGACGAACUCAAA [JR_SSNG3_Sub069] (Eterna round: R96, puzzle: Same State NG 3)	–	–	–	9.51 nM	15.3 nM	17.4 nM
UCUUGGUUUUUGCUCGUUUUUUGUGUUGAACAUGAGGAUCACCCAUGUAUUGUACGGUCCGGUUUGGUAAUGGUCCG [JMF 10] (puzzle: Sensor for hsa-mir-208a)	24.4 nM	16.1 nM	27.8 nM	–	–	–
GCGAGCGUACUUGCAGACAUGAGGAUCACCCAUGUAACUGGACAGGAUAUGGUACCGUUUCGGUACCAGAAGGGUUCAUAUGUC [JL SSNG3 3.53] (Eterna round: R96, puzzle: Same State NG 3)	–	–	–	67.6 nM	50.8 nM	79.4 nM
CGGGUGAUCGUAGGAUAUCUAGGAUAUGAACGAGGAUCACCCGAGCAGCAUCAGCGCAUCAGAGGAGAGAAGGACGAUGAUGCG [pwkr ssNG2 2F5 2FMN.19] (Eterna round: R96, puzzle: Same State NG 2)	–	–	–	20.5 nM	21.7 nM	34 nM
AGCUAUCGAAAACGAUAGCAAAAGCAUGUACAUGAGGAUCACCCAUGUCAUGUACAAGCUUUUUGUUCGUCUUAAAA [Zipper 23 - 14] (puzzle: Sensor for hsa-mir-208a)	430 nM	11.7 nM	334 nM	–	–	–
AUGAAUUUGCGAGGAUAUCGUUUGUUGAAGUUACGAGAAGGCGCUCACUUUACAUGAGGAUCACCCAUGUUUAUGAUAUAUGAU [JR_SSNG1_Sub074] (Eterna round: R96, puzzle: Same State NG 1)	–	–	–	24.1 nM	30 nM	37.1 nM
GUUACAUGAGGAUCACCCAUGUAUGUGUGGGAGUAAGUGACUUAGGAUAUCUAAUAUUUAAAUUAAGAGAAGGAAGAUUGUUGU [JMF's solution 5] (Eterna round: R96, puzzle: Same State NG 3)	–	–	–	266 nM	131 nM	202 nM
UUAAGCCACGAGCAGGAUAUGUAUUAAAAUACAUGAGGAUCACCCAUGUGCAGGUGUAACACCUGACAGAAGGGCCAAUCGCGGC [Soondi - 1] (puzzle: Same State 2)	256 nM	366 nM	461 nM	–	–	–
UGUUUGUUGUGAGGAUAUACAUACACCUUACAUGAGGAUCACCCAUGUUGUUACCUUGAUAGUUAGUAGAAGGCACUUGGUUAU [JR_SSNG2_Sub046] (Eterna round: R96, puzzle: Same State NG 2)	–	–	–	243 nM	140 nM	261 nM
CCGUAGAUGGUAGGAUAUGGAGCCUUAUUGGCUCCAGAAGGAUCGAAAACAUGAGGAUCACCCAUGUCGGCGGUCAAUAGACCG [Eli NG1ss - 84] (Eterna round: R96, puzzle: Same State NG 1)	–	–	–	21.8 nM	43.1 nM	34.1 nM

Sequence	apparent KD of MS2 coat protein [1]	apparent KD of MS2 coat protein [2]	apparent KD of MS2 coat protein [3]	apparent KD of MS2 coat protein (input ligand: FMN 200 uM)	apparent KD of MS2 coat protein [4]	apparent KD of MS2 coat protein (input ligand: none)
UGUUGUAUUACAGGAUAUCUAUUAUUUUUAAUUAGAGAAGGGUAUUCACAUGAGGAUCACCCAUGUAUAUACGAGGAAGUUGUG [JMF's solution 25] (Eterna round: R96, puzzle: Same State NG 1)	–	–	–	–	27.5 nM	–
AUUAAACAUGAGGAUCACCCAUGUCAACAAAGUCGAGGAUAUGGGCAAAUUAAAUAAGAACCAGAAGGCGAAUAAU [salish99_ss1_r3_060] (puzzle: Same State 1)	35.9 nM	189 nM	269 nM	–	–	–
GGAAUAUUUACAGGAUAUGAUUUGUAAAUUCGAUCAGAAGGGUGGAUGUCUUACACGGUUUGUUACAUGAGGAUCACCCAUGUC [SameState NG1 #12] (Eterna round: R96, puzzle: Same State NG 1)	–	–	–	452 nM	253 nM	376 nM
GCUCGAUGAAUGUCCUACAUGAGGAUCACCCAUGUUCGUGGGCAGGAUAUUUACAUGCAGAGUGUAGAGAAGGGCCCAUCGAGC [SameState NG3 #63] (Eterna round: R96, puzzle: Same State NG 3)	–	–	–	43.4 nM	63.7 nM	85.1 nM
CAUCGUUUGAUAGGAUAUCGCUAUACAUGAGGAUCACCCAUGUUUACCACGCUGGUUUUUCAUACCGAGAAGGAUUCUGAUGAC [salish99_SSNG02_r04_014] (Eterna round: R96, puzzle: Same State NG 2)	–	–	–	27.3 nM	27.7 nM	30.2 nM
GCGAAGAGGUAAGGAUAUUCAUGGCGGAGACAUGAGGAUCACCCAUGUAGGAGACGAAAUCAAAGGGAGAAGGUACCAGGACGC [AK SSNG2-V2-15] (Eterna round: R96, puzzle: Same State NG 2)	–	–	–	82.2 nM	159 nM	160 nM
UGUUGUAUUACAGGAUAUCUAUGAUUUUAAUUUAGAGAAGGGUAUUCACAUGAGGAUCACCCAUGUAUAUACGAGGAAGUUGUG [JMF's solution 63] (Eterna round: R96, puzzle: Same State NG 1)	–	–	–	–	40.2 nM	–
CACCAGAGAGCAGGAUAUGGGCCACGGCCUAAGGGCUGUGAACUCACAUGAGGAUCACCCAUGUCCCAGAAGGGCUCCUGGCUA [Getiised] (Eterna round: R96, puzzle: Same State NG 2)	–	–	–	98.3 nM	602 nM	842 nM
GUAAUACAUGAGGAUCACCCAUGUCAAUGUAGUCGAGGAUAUGGGUAGCUAUGAGGCGUACUAGAAGGCGAGGAGU [JL-ss1-3.18 ViennaUCT mod] (puzzle: Same State 1)	258 nM	72.1 nM	85.8 nM	–	–	–
AACUGUUUCUGAGGAUAUCAGUAGUAUGCCAAUUGAGAAGGCAGUACAUGAGGAUCACCCAUGUUGUGGUUUGAUAGAAUGAUA [JR_SSNG1_Sub003] (Eterna round: R96, puzzle: Same State NG 1)	–	–	–	182 nM	133 nM	214 nM
UGUUAACAUGAGGAUCACCCAUGUCAAAUGAAUCGAGGAUAUGGAAAGUAAUAAGAUGAACUAGAAGGCGAAGUUG [Altered State 1-18 - Jieux - Same State 1] (puzzle: Same State 1)	46.2 nM	87.9 nM	86.7 nM	–	–	–
UUAUAACAUGAGGAUCACCCAUGUCAACAAAGUCGAGGAUAUGGGCAUAGAGGAUAAGAACCAGAAGGCGAAUAUU [Mat - Same State 1 - Mod of UCT - D39] (puzzle: Same State 1)	70.8 nM	150 nM	163 nM	–	–	–
GGAGCCAAGGCAGGAUAUUCAUAUAAAUAAACAUGAGGAUCACCCAUGUAGGCCAGAAGGCCUUGGGAGAAGGGCCAUGGCUCG [Xeonanis - 13 mod6] (Eterna round: R96, puzzle: Same State NG 2)	–	–	–	19.4 nM	69.8 nM	121 nM
GGAGCCGGCACUGAGGAUAUUCAUAUUAAAACAUGAGGAUCACCCAUGUAGGCCAGAAGGCCUUGGGAGAAGGCAGGUCGGCUCG [Arinin] (Eterna round: R96, puzzle: Same State 2)	–	–	–	20 nM	188 nM	283 nM
AUUGCUAUCACAGGAUAUCAUGCGAAAAUCGCGUGAGAAGGGUGGACUCUGUCAUUCACGGAGGACAUGAGGAUCACCCAUGUC [SS NG10LRO16] (Eterna round: R96, puzzle: Same State NG 1)	–	–	–	363 nM	18.9 nM	45.8 nM
